Assay results reported in patent US20220226382A1, “Nutritional Composition” (MORINAGA MILK INDUSTRY CO., LTD., priority 2019, published 2022).

System: simian rotavirus SA11 strain
Assay: Plaque assay: antiviral action against simian rotavirus in MA104 cells (infection-suppressing ratio)
Assay type: cell-based
Details: LF alone, n=3
Method: The simian rotavirus SA11 strain (Nihon Bioresearch Inc.) was inoculated to the MA104 cells (Sigma-Aldrich) of African green monkey kidney maintained in a minimum essential medium (Sigma-Aldrich, henceforth referred to simply as “medium”). The simian rotavirus SA11 strain, for example, can be obtained from American Type Culture Collection (ATCC) as ATCC VR-1565. To the medium, lactoferrin (LF) and/or the human milk oligosaccharide(s) shown below were added beforehand alone or in combination at the following concentrations, respectively (n=3).
LF (produced by Morinaga Milk Industry Co., Ltd.): 0, 0.1 or 1.0 mg/mL
2′-Fucosyllactose (2′-FL, Funakoshi Co., Ltd.): 0, 0.1, 0.5, or 2.5 mg/mL
3-Fucosyllactose (3-FL, Funakoshi Co., Ltd.): 0, 0.1, or 0.5 mg/mL
3′-Sialyllactose (3′-SL, Funakoshi Co., Ltd.): 0, 0.1, or 0.5 mg/mL
6′-Sialyllactose (6′-SL, Funakoshi Co., Ltd.): 0, 0.1, or 0.5 mg/mL […]
Degree of infection was evaluated based on the number of “plaques” formed when the cells were infected with the virus. Specifically, the antiviral effects of lactoferrin and human milk oligosaccharides were evaluated based on “plaque-suppressing ratio (%)”, i.e., the ratio of “plaque counts observed with lactoferrin and/or human milk oligosaccharide(s) supplementation” to “plaque counts observed without these supplementation”. […]

B1: lactoferrin (protein, UniProt P24627 20-708, looked up)
Lactotransferrin: APRKNVRWCTISQPEWFKCRRWQWRMKKLGAPSITCVRRAFALECIRAIAEKKADAVTLDGGMVFEAGRDPYKLRPVAAEIYGTKESPQTHYYAVAVVKKGSNFQLDQLQGRKSCHTGLGRSAGWIIPMGILRPYLSWTESLEPLQGAVAKFFSASCVPCIDRQAYPNLCQLCKGEGENQCACSSREPYFGYSGAFKCLQDGAGDVAFVKETTVFENLPEKADRDQYELLCLNNSRAPVDAFKECHLAQVPSHAVVARSVDGKEDLIWKLLSKAQEKFGKNKSRSFQLFGSPPGQRDLLFKDSALGFLRIPSKVDSALYLGSRYLTTLKNLRETAEEVKARYTRVVWCAVGPEEQKKCQQWSQQSGQNVTCATASTTDDCIVLVLKGEADALNLDGGYIYTAGKCGLVPVLAENRKSSKHSSLDCVLRPTEGYLAVAVVKKANEGLTWNSLKDKKSCHTAVDRTAGWNIPMGLIVNQTGSCAFDEFFSQSCAPGADPKSRLCALCAGDDQGLDKCVPNSKEKYYGYTGAFRCLAEDVGDVAFVKNDTVWENTNGESTADWAKNLNREDFRLLCLDGTRKPVTEAQSCHLAVAPNHAVVSRSDRAAHVKQVLLHQQALFGKNGKNCPDKFCLFKSETKNLLFNDNTECLAKLGGRPTYEEYLGTEYVTAIANLKKCSTSPLLEACAFLTR
notes: produced by Morinaga Milk Industry Co., Ltd
infection-suppressing ratio (0.1 mg/mL): 8.7% | infection-suppressing ratio (1.0 mg/mL): 39%
